In patent publication US20160280788A1, “USE OF ANTIBODIES AGAINST ICAM-1 IN THE TREATMENT OF PATIENTS WITH RELAPSED CANCER” (BioInvent International AB, priority 2010, published 2016):
Read-outs that look alike come from different tables or passages of the source.

Key:
Daudi lymphoma cells = assay: Programmed cell death (PCD) assay, Daudi; assay type: cell-based, human
Procedure: Target cells were seeded in 96-well culture plates at a density of 2×10^6 cells/mL culture medium. […] The cells were then incubated for 16 hours at 37° C. in a humidified atmosphere of 5% CO2. The cells were harvested and stained for Annexin V-488/Propidium Iodide (Invitrogen, Sweden) and analysed using flow cytometer (FACS Calibur, BD Bioscience).

[1] = test system: HUVEC, HMVEC or peripheral blood B cells; assay: ADCC of normal ICAM-1 expressing cells; assay type: cell-based
Excerpt: (§1) Buffy coats from human donors (ordered through Blodcentralen, Lund) were used to isolate peripheral blood mononuclear cells (PBMCs), and subsequently NK cells. Briefly, peripheral blood components were separated using Ficoll Paque PLUS (Amersham Biosciences, Sweden) in LeucoSep tubes (Greiner Bio-One). The PBMC fraction was removed and thoroughly washed in ice-cold DPBS (Invitrogen), before magnetic labeling and separation of the NK cell population using positive or negative NK cell isolation kits and MACS LS columns (Miltenyi Biotec). The purity of the obtained NK cell fractions was analyzed using flow cytometry, after staining with α-CD56 antibodies (BD Biosciences). Target cells were harvested, and incubated in medium with or without the respective antibodies (2 μg/mL) for 60 min on ice. Cells were thereafter washed and resuspended in cold medium before dispension into FACS tubes. Subsequently, isolated NK cells were diluted in ADCC medium and dispensed together with the respective antibody-coated target cells at varying effector/target cell ratios (40:1, 20:1, 5:1 and 1:1). All experiments were performed in triplicates. After completed incubation ToPo-Pro-3 dye and counting beads (Invitrogen) were added and cells were analyzed for membrane permeabilization using flow cytometry.

mouse FcγRIV = biological target: T1, mouse FcγRIV (Mus musculus, UniProt A0A0B4J1G0); assay: Biacore binding of BI-505 isotype variants to mouse FcγRIV
T1 construct: made in house; host or cells: HEK293E (transient)
T1 sequence (A0A0B4J1G0 21-249): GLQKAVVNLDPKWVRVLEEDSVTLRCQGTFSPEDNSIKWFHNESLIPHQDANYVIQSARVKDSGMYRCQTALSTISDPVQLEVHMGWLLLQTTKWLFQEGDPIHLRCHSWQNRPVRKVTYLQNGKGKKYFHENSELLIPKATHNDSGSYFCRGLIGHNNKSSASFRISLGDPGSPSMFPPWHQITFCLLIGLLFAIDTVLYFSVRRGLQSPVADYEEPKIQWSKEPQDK
Procedure: (§2) His-tagged human FcγRIIIa or mouse FcγRIV were expressed transient in adherent HEK293E cells, purified using Ni-NTA chromatography and characterized using SDS-PAGE and/or Biacore. Surface plasmon resonance (SPR) measurements were perfomed using a Biacore 3000 instrument. Goat α-human-F(ab)′2 F(ab)′2 fragment (Jackson laboratories) was immobilised with a CM-5 chip using a standard amine coupling protocol. IgG1 B11, Iga4 B11, or 297Q B11 were diluted to 15 and 60 μg/mL respectively and added to the surface at […] for 3 min. His tagged human FcγRIIIa or mouse FcγRIV were pre-incubated with an α-HIS antibody (R&D Systems) at a 2:1 molar ratio before addition to the chip surface, […], 1 min. After each cycle the surface was regenerated twice with glycine buffer pH 1.7.

ARH-77 cells = assay: Subcutaneous scid/ARH-77 xenograft, prophylactic model
Procedure: Tumor cells were injected subcutaneously into the left flank of SCID mice. Mice received twice-weekly intraperitoneal injections with BI-505, control antibody or rituximab at doses of 20, 2 and/or 0.2 mg/kg commencing one day after tumor cell inoculation. There were 8 to 10 animals per treatment group. […] Statistical significance was calculated relative to control antibody treatment using Kruskal-Wallis Test (Nonparametric ANOVA) with Dunn's Multiple Comparisons Test (tumor volume) or the log-rank test (mouse survival) using Graphpad Instat or Prism software, respectively. Statistical significance was considered for *p<0.05, **p<0.01, and ***p<0.001.
Tumor cells were injected subcutaneously into the left flank of SCID mice. Mice received twice-weekly intraperitoneal injections with BI-505 at doses of 0.02-20 mg/kg commencing day after tumor cell inoculation. There were 8-10 animals per treatment group. […] Statistical significance was calculated relative to control antibody treatment using Kruskal-Wallis Test (Nonparametric ANOVA) with Dunn's Multiple Comparisons Test (tumor volume) or the log-rank test (mouse survival) using Graphpad Instat or Prism software, respectively. Statistical significance was considered for *p<0.05, **p<0.01, and ***p<0.001. Graphs illustrate representative experiments out of several performed.
(FIG. 7A) ARH-77 cells were injected subcutaneously into the left flank of SCID mice (n=8 per group). Mice were treated with the different BI-505 isotypes twice weekly. […] Statistical significance was calculated relative to control antibody treatment using Kruskal-Wallis Test (Nonparametric ANOVA) with Dunn's Multiple Comparisons Test. Statistical significance was considered for *p<0.05, **p<0.01, and ***p<0.001.
Mice were anaesthetized with a mixture of sevofluran and oxygen prior to myeloma cell inoculation and 1-5×10^6 myeloma cells were then subcutaneously injected in a volume of 100 μl into the left flank.

[2] = test system: HUVEC and HMVEC endothelial cells; assay: PCD in normal endothelial cells; assay type: cell-based; details: resting or activated (IFN-γ) cells
Procedure: (§3) Target cells were seeded in 96-well culture plates at a density of 2×10^6 cells/mL culture medium. Titrated concentrations of IgG1 B11 or different negative and positive control antibodies were added to the cells, in the absence or presence of anti-human Fab fragment (Jackson ImmunoResearch) for cross-linking. The cells were then incubated for 16 hours at 37° C. in a humidified atmosphere of 5% CO2. The cells were harvested and stained for Annexin V-488/Propidium Iodide (Invitrogen, Sweden) and analysed using flow cytometer (FACS Calibur, BD Bioscience).

PBMC [3] = assay: PBMC / T cell proliferation; assay type: cell-based
human FcγRIIIa = biological target: T2, human FcγRIIIa (Homo sapiens, UniProt P08637); assay: Biacore binding of BI-505 isotype variants to human FcγRIIIa
T2 construct: made in house; host or cells: HEK293E (transient)
Procedure: as §2

EJM myeloma cells = assay: Subcutaneous myeloma xenograft, EJM; assay type: in vivo, scid mice; details: 2 mg/kg twice weekly i.p.; vs control IgG1
Procedure: Antibody treatment with 2 mg/kg BI-505 or control IgG1 was started at Day 1 and was continued on a twice-weekly intraperitoneal dosing regimen. Mice were sacrificed when tumor sizes reached the ethical limit.

peripheral blood B cells = assay: PCD in normal B cells; assay type: cell-based; details: resting or activated cells
Procedure: as §3

[4] = test system: HUVEC, HMVEC or peripheral blood B cells; assay: CDC of normal ICAM-1 expressing cells; assay type: cell-based
Procedure: (§4) Target cells were harvested and incubated in RPMI medium with antibodies at 5 μg/mL or at titrated concentrations between 0.01-100 μg/mL for 60 min on ice. Cells were thereafter washed and resuspended in cold medium before dispension into flow cytometry tubes. Treatments were performed in triplicates. Human serum, normal or heat-inactivated, (Sigma, Sweden) was added to tubes and the samples were incubated for 2 h at 37° C. After completed incubation ToPo-Pro-3 was added at a final concentration of 0.3 μM and cells were analyzed for membrane permeabilization using flow cytometry.

[5] = test system: ICAM-1 expressing tumor cell lines; assay: Complement-dependent cytotoxicity in tumor cell lines; assay type: cell-based; details: panel of ICAM-1 expressing tumor cell lines; human serum
Procedure: as §4

[6] = test system: F4/80 positive host effector cells in ARH-77 xenograft tissue; details: compared to control IgG, untreated and rituximab treated mice
Procedure: (FIG. 7A) ARH-77 cells were injected subcutaneously into the left flank of SCID mice (n=8 per group). […] Statistical significance was calculated relative to control antibody treatment using Kruskal-Wallis Test (Nonparametric ANOVA) with Dunn's Multiple Comparisons Test. Statistical significance was considered for *p<0.05, **p<0.01, and ***p<0.001.

PBMC [7] = assay: PBMC cytokine release; assay type: cell-based
[8] = test system: B lymphoma cell line (CL-01); assay: ADCC of tumor cells with human NK effector cells; assay type: cell-based; details: human Natural Killer effector cells
Excerpt: as §1

[9] = added in solution, resting or lipopolysaccharide pre-stimulated PBMCs
[10] = immobilised by either protocol, or in solution with or without cross-linking reagent

T2 sequence (P08637 17-254): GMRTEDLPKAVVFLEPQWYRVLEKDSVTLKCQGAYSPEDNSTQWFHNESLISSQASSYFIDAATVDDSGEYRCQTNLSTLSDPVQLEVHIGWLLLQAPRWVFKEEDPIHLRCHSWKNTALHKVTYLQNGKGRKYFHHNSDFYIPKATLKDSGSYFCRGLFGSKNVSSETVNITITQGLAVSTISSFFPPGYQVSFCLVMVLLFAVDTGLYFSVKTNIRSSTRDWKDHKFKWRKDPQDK

B1: IgG B11: fully human ICAM-1 antibody isolated from the n-CoDeR library; VH/VL sequences in FIG. 15 (SEQ ID NOs 8, 10) (antibody, V domains shown)
VH: EVQLLESGGGLVQPGGSLRLSCAASGFTFSNAWMSWVRQAPGKGLEWVAFIWYDGSNKYYADSVKGRFTISRDNSKNTLYLQMNSLRAEDTAVYYCARYSGWYFDYWGQGTLVTVSS
VL: QSVLTQPPSASGTPGQRVTISCTGSSSNIGAGYDVHWYQQLPGTAPKLLIYDNNNRPSGVPDRFSGSKSGTSASLAISGLRSEDEADYYCQSYDSSLSAWLFGGGTKLTVLG
modifications: B11 VH region; B11 VL region
Daudi lymphoma cells; antibody immobilised by either of two coating protocols
  PCD induction: induced programmed cell death
Daudi lymphoma cells; titrated antibody with cross-linking, 16 hours
  PCD induction: dose dependent PCD-induction
[1]
  ADCC of normal cells: did not confer ADCC
Mouse FcγRIV
  binding to murine FcγRIV: strong binding
ARH-77 cells; 20 mg/kg twice weekly i.p., commencing one day after tumor cell inoculation
  tumor growth: completely prevent tumor-growth
ARH-77 cells; IgG B11 at 2 mg/kg, ten-fold lower dose than rituximab
  survival: complete survival
ARH-77 cells; dose of 0.2 mg/kg, dose titration
  anti-tumor activity: near maximal
ARH-77 cells; dose titration 0.02-20 mg/kg twice weekly i.p.
  dose at which anti-tumor activity peaked: 2 mg/kg
[2]
  PCD induction in normal endothelial cells: did not, however, induce PCD
PBMC [3]; [9]
  cell proliferation: did not induce cell proliferation
PBMC [3]; [10]
  cell proliferation: did not induce cell proliferation
Human FcγRIIIa
  binding to human FcγRIIIa: bound to human FcγRIIIa
EJM myeloma cells
  reduction of myeloma tumor growth: 98%
Peripheral blood B cells
  PCD induction in normal B cells: did not, however, induce PCD
[4]
  CDC of normal cells: did not confer ADCC or CDC
[5]
  induction of CDC: did not induce CDC
[6]
  influx of F4/80+ host effector cells (macrophage infiltration) in tumor tissue: massive influx
[6]; listed as BI-505
  influx of F4/80+ host effector cells (macrophage infiltration) in tumor tissue: significantly increased
PBMC [7]; [9]
  cytokine release: did not induce or enhance cytokine release
PBMC [7]; [10]
  PBMC cytokine release: induce PBMC cytokine release
[8]
  ADCC of target tumor cells: mediated ADCC
